Measurements published in US20140030731.

How the values were obtained:
[1] = target: constitutively active GFP-RhoAV14, P61586
[2] = target: GFP-RhoAV14E40L (constitutively active mutant of RhoA defective in its interaction with ROCK), P61586
GFP-RhoAV14E40L (constitutively active mutant of RhoA defective in its interaction with ROCK), P61586, sequence (P61586 other isoform, or with tags, fused parts or gaps mutant): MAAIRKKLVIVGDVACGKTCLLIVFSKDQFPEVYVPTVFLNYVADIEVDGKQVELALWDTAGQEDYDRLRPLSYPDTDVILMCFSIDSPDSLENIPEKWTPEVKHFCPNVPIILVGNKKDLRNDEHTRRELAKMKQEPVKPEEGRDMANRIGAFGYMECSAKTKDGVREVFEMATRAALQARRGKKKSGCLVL

constitutively active GFP-RhoAV14, P61586, sequence (P61586 other isoform, or with tags, fused parts or gaps): as the sequence (P61586 other isoform, or with tags, fused parts or gaps mutant) above, with L40E counted along it

Protein | level of ROCKI Ser^1333 phosphorylation (Western blotting with antibody-I, HEK-293T extracts) [1] | level of ROCK Ser^1366 phosphorylation (Western blotting with antibody-II, HEK-293T extracts) [1] | level of ROCKII Ser^1366 phosphorylation (Western blotting with antibody-II, HEK-293T extracts) [2]
endogenous human ROCKI, Ser^1333 phosphorylated (HEK-293T cell extracts) (protein) STGDSFETRFEKMDNLLRDPKSEVNSDCLLDGLDALVYDLDFPALRKNKNIDNFLSRYKDTINKIRDLRMKAEDYEVVKVIGRGAFGEVQLVRHKSTRKVYAMKLLSKFEMIKRSDSAFFWEERDIMAFANSPWVVQLFYAFQDDRYLYMVMEYMPGGDLVNLMSNYDVPEKWARFYTAEVVLALDAIHSMGFIHRDVKPDNMLLDKSGHLKLADFGTCMKMNKEGMVRCDTAVGTPDYISPEVLKSQGGDGYYGRECDWWSVGVFLYEMLVGDTPFYADSLVGTYSKIMNHKNSLTFPDDNDISKEAKNLICAFLTDREVRLGRNGVEEIKRHLFFKNDQWAWETLRDTVAPVVPDLSSDIDTSNFDDLEEDKGEEETFPIPKAFVGNQLPFVGFTYYSNRRYLSSANPNDNRTSSNADKSLQESLQKTIYKLEEQLHNEMQLKDEMEQKCRTSNIKLDKIMKELDEEGNQRRNLESTVSQIEKEKMLLQHRINEYQRKAEQENEKRRNVENEVSTLKDQLEDLKKVSQNSQLANEKLSQLQKQLEEANDLLRTESDTAVRLRKSHTEMSKSISQLESLNRELQERNRILENSKSQTDKDYYQLQAILEAERRDRGHDSEMIGDLQARITSLQEEVKHLKHNLEKVEGERKEAQDMLNHSEKEKNNLEIDLNYKLKSLQQRLEQEVNEHKVTKARLTDKHQSIEEAKSVAMCEMEKKLKEEREAREKAENRVVQIEKQCSMLDVDLKQSQQKLEHLTGNKERMEDEVKNLTLQLEQESNKRLLLQNELKTQAFEADNLKGLEKQMKQEINTLLEAKRLLEFELAQLTKQYRGNEGQMRELQDQLEAEQYFSTLYKTQVKELKEEIEEKNRENLKKIQELQNEKETLATQLDLAETKAESEQLARGLLEEQYFELTQESKKAASRNRQEITDKDHTVSRLEEANSMLTKDIEILRRENEELTEKMKKAEEEYKLEKEEEISNLKAAFEKNINTERTLKTQAVNKLAEIMNRKDFKIDRKKANTQDLRKKEKENRKLQLELNQEREKFNQMVVKHQKELNDMQAQLVEECAHRNELQMQLASKESDIEQLRAKLLDLSDSTSVASFPSADETDGNLPESRIEGWLSVPNRGNIKRYGWKKQYVVVSSKKILFYNDEQDKEQSNPSMVLDIDKLFHVRPVTQGDVYRAETEEIPKIFQILYANEGECRKDVEMEPVQQAEKTNFQNHKGHEFIPTLYHFPANCDACAKPLWHVFKPPPALECRRCHVKCHRDHLDKKEDLICPCKVSYDVTSARDMLLLACSQDEQKKWVTHLVKKIPKNPPSGFVRASPRTLSTRSTANQSFRKVVKNTSGKTS | the changes on the level of ROCKI Ser^1333 phosphorylaion also indeed enhanced due to RhoA activation | – | –
endogenous human ROCKII, Ser^1366 phosphorylated (HEK-293T cell extracts; human breast tumor tissue) (protein) MSRPPPTGKMPGAPETAPGDGAGASRQRKLEALIRDPRSPINVESLLDGLNSLVLDLDFPALRKNKNIDNFLNRYEKIVKKIRGLQMKAEDYDVVKVIGRGAFGEVQLVRHKASQKVYAMKLLSKFEMIKRSDSAFFWEERDIMAFANSPWVVQLFYAFQDDRYLYMVMEYMPGGDLVNLMSNYDVPEKWAKFYTAEVVLALDAIHSMGLIHRDVKPDNMLLDKHGHLKLADFGTCMKMDETGMVHCDTAVGTPDYISPEVLKSQGGDGFYGRECDWWSVGVFLYEMLVGDTPFYADSLVGTYSKIMDHKNSLCFPEDAEISKHAKNLICAFLTDREVRLGRNGVEEIRQHPFFKNDQWHWDNIRETAAPVVPELSSDIDSSNFDDIEDDKGDVETFPIPKAFVGNQLPFIGFTYYRENLLLSDSPSCRETDSIQSRKNEESQEIQKKLYTLEEHLSNEMQAKEELEQKCKSVNTRLEKTAKELEEEITLRKSVESALRQLEREKALLQHKNAEYQRKADHEADKKRNLENDVNSLKDQLEDLKKRNQNSQISTEKVNQLQRQLDETNALLRTESDTAARLRKTQAESSKQIQQLESNNRDLQDKNCLLETAKLKLEKEFINLQSALESERRDRTHGSEIINDLQGRICGLEEDLKNGKILLAKVELEKRQLQERFTDLEKEKSNMEIDMTYQLKVIQQSLEQEEAEHKATKARLADKNKIYESIEEAKSEAMKEMEKKLLEERTLKQKVENLLLEAEKRCSLLDCDLKQSQQKINELLKQKDVLNEDVRNLTLKIEQETQKRCLTQNDLKMQTQQVNTLKMSEKQLKQENNHLMEMKMNLEKQNAELRKERQDADGQMKELQDQLEAEQYFSTLYKTQVRELKEECEEKTKLGKELQQKKQELQDERDSLAAQLEITLTKADSEQLARSIAEEQYSDLEKEKIMKELEIKEMMARHKQELTEKDATIASLEETNRTLTSDVANLANEKEELNNKLKDVQEQLSRLKDEEISAAAIKAQFEKQLLTERTLKTQAVNKLAEIMNRKEPVKRGNDTDVRRKEKENRKLHMELKSEREKLTQQMIKYQKELNEMQAQIAEESQIRIELQMTLDSKDSDIEQLRSQLQALHIGLDSSSIGSGPGDAEADDGFPESRLEGWLSLPVRNNTKKFGWVKKYVIVSSKKILFYDSEQDKEQSNPYMVLDIDKLFHVRPVTQTDVYRADAKEIPRIFQILYANEGESKKEQEFPVEPVGEKSNYICHKGHEFIPTLYHFPTNCEACMKPLWHMFKPPPALECRRCHIKCHKDHMDKKEEIIAPCKVYYDISTAKNLLLLANSTEEQQKWVSRLVKKIPKKPPAPDPFARSSPRTSMKIQQNQSIRRPSRQLAPNKPS | – | the level of ROCK Ser^1366 phosphorylation in the GFP-RhoAV14 expression cells was enhanced | neither GFP-RhoAV14E40L nor GFP-RhoAN19 transfection shows no the enhancement of RCOKII Ser^1366 phosphorylation
